Measured values: paper PMC4677347

Experiments:
[1] = target: human proteasome α7 subunit (human) (UniProt P25788); assay: AUC; sedimentation velocity, mixture of α7 and α6 at 1:4 molar ratio (α7 tetradecamer to α6 monomer), 150 mM potassium phosphate pH 7.4, 25,000 rpm
[2] = target: human proteasome α7 subunit (human) (UniProt P25788); assay: AUC; sedimentation velocity, α7 alone, 150 mM potassium phosphate pH 7.4, 25,000 rpm, c(s) analysis in SEDFIT
[3] = target: human proteasome α7 subunit (human) (UniProt P25788); assay: native MS; α7 alone, 28 μM monomer, 10 mM ammonium acetate pH 6.8, nanoflow ESI under non-denaturing conditions
[4] = target: human proteasome α7 subunit (human) (UniProt P25788); assay: native MS; α7 (2 μM tetradecamer) mixed with α6 (0.5, 1, 2, 4 and 8 μM monomer) at pH 7.5, incubated at 20 °C for 1 h, nanoflow ESI under non-denaturing conditions
[5] = target: human proteasome α6 subunit, short isoform (human) (UniProt P25786); assay: AUC; sedimentation velocity, α6 alone, 150 mM potassium phosphate pH 7.4, 55,000 rpm, c(s) analysis in SEDFIT
[6] = target: human proteasome α6 subunit, short isoform (human) (UniProt P25786); assay: native MS; α6 alone at 5, 10 and 20 μM monomer, 150 mM ammonium acetate pH 7.5, nanoflow ESI under non-denaturing conditions

In the case of “human proteasome α7 subunit (from UniProt P25788 1-255) (natural protein)”, the stoichiometry N [1] is reported as 7, the stoichiometry N [2] is reported as 14 and the stoichiometry N [3] is reported as 14. It also gave a stoichiometry N [4] of 7.

With “human proteasome α6 subunit, short isoform (from UniProt P25786 1-263) (natural protein)” the stoichiometry N [5] was 2, the stoichiometry N [1] was 7 α7 per α6 and the stoichiometry N [6] was 2. For the same substance, the stoichiometry N [4] was 7 α7 per α6.
